Laboratory results reported in the supplement of paper PMC10567573.
± gives the standard deviation.

Assay: protein stability index of a GFP-peptide fusion (GPS, HEK-293T) (PSI 1-6); higher = more stable
[1] = treatment: DMSO, c terminus: a fixed tail appended
[2] = treatment: MLN4924 1 uM, 8 h, c terminus: a fixed tail appended
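Note: 24-mer peptide tiles fused after GFP, lentivirally expressed, FACS-sorted into six equal bins by GFP/DsRed ratio, decoded by Illumina sequencing, PSI is the read-weighted mean bin number.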

Row | Sequence | protein stability index [1] | protein stability index [2] | protein stability index (treatment: DMSO, c terminus: native) | protein stability index (treatment: MLN4924 1 uM, 8 h, c terminus: native)
1 | RTISCHVQNGTYLQRVLQNCPWPM [EMID1] | 2.12 ± 0.22 | 2.02 ± 0.17 |  | 
2 | YRHQRLHTGERPYECTVCKKRFTR [ZNF449] | 2.75 ± 0.56 | 3.5 ± 0.53 |  | 
3 | KLEEVVNKKHGEAEKKKPKTQIVC [ZC3H15] | 4.64 ± 0.18 | 4.63 ± 0.24 |  | 
4 | EDYSAEYIIQQGGWGTVFSLESEE [BCL2L13] | 4.17 ± 0.29 | 3.96 ± 0.46 |  | 
5 | FLIPMLEMVPEKRASAGECLRHPW [SRPK2] | 2.33 ± 0.26 | 2.2 ± 0.12 |  | 
6 | ELVALIPHSDQRLRPQRTKQYVLL [TMEM106C] | 2.02 ± 0.33 | 2.17 ± 0.22 |  | 
7 | LHASTVKRYGLGAHRGRLNIQAGI [CPXM2] | 2.52 ± 0.12 | 2.51 ± 0.2 |  | 
8 | QNECQVLKLLNHPNVIEYYENFLE [NEK8] | 2.56 ± 0.12 | 2.67 ± 0.27 |  | 
9 | IMDRFDCQYLMATFVNVYIASFIR [CDS2] | 3.423 ± 0.005 | 3.33 ± 0.31 |  | 
10 | MVLAPVFGYLGDRYNRKYLMCGGI [SPNS1] | 2.61 ± 0.058 | 2.5 ± 0.84 |  | 
11 | SISKLSPFSEFFKLRFNRKKKGMY [PWWP2B] | 2.06 ± 0.25 | 2.31 ± 0.19 |  | 
12 | LWPTPGHLSPLVVHRQLSHLYAEP [ESR2] | 2.38 ± 0.24 | 2.54 ± 0.3 |  | 
13 | LAVYIDKVRSLETENSALQLQVTE [LMNB1] | 2.25 ± 0.24 | 2.52 ± 0.083 |  | 
14 | ATFVDKKRDLLGALKYWKKAMNMR [FEM1C] | 1.95 ± 0.17 | 2.13 ± 0.46 |  | 
15 | LGKESFYDTFHTVADMMYFCQMLA [HACD3] | 2.56 ± 0.92 | 3.15 ± 0.99 |  | 
16 | SSSSGVLMVGPNFRVGKKIGCGNF [CSNK1G3] | 2.71 ± 0.38 | 2.71 ± 0.21 |  | 
17 | CWPMMDFLRCVTAALIYFAISITA [CMTM3] | 3.23 ± 0.49 | 3.34 ± 0.26 |  | 
18 | PLVLTEVLFNEKIREQIKKYRRHF [EIF5] | 2.31 ± 0.35 | 2.28 ± 0.33 |  | 
19 | DDIKESLESEGKNSKKEEPQELLQ [ATE1] | 5.65 ± 0.2 | 5.61 ± 0.13 |  | 
20 | ALATRALPCPAHVVFRYQGVRMS [FCHSD1] |  |  | 3.1 ± 0.67 | 2.58 ± 0.84
21 | ASEYCPGKLSWGTMARALGRFKLS [WDR88] | 2.49 ± 0.42 | 2.67 ± 0.29 |  | 
22 | AYDYAKEVNSAEELEGLIADPDEM [FEM1C] | 5.68 ± 0.13 | 5.51 ± 0.56 |  | 

Row | Sequence | protein stability index [1] | protein stability index [2] | protein stability index (treatment: DMSO, c terminus: native) | protein stability index (treatment: MLN4924 1 uM, 8 h, c terminus: native)
23 | KVNSKKMLGKYNTPVSYRMAKTLV [ACSBG2] | 1.81 ± 0.082 | 2.05 ± 0.42 |  | 
24 | FLVSTHTGEVRTARALLEDDSDTQ [PCDHGC5] | 4.63 ± 0.22 | 4.76 ± 0.24 |  | 
25 | ARLMLESEYRSDIINAKSNDGWTP [ASB7] | 2.65 ± 0.28 | 3.15 ± 0.15 |  | 
26 | PSGSSGSLSTSSSSSPPGTPSPAD [CEBPB] | 5.53 ± 0.31 | 5.46 ± 0.069 |  | 
27 | NPSQKTGQALLTHLYQSSARRYAG [ELAVL3] | 3.58 ± 0.23 | 3.4 ± 0.36 |  | 
28 | EISEAFTSTGFDRHTSPVFSPANP [BCL2L13] | 3.9 ± 0.24 | 3.99 ± 0.25 |  | 
29 | PISAIRHEGKTDSERTDTAADGET [EPB41L3] | 5.71 ± 0.19 | 5.74 ± 0.078 |  | 
30 | LPCNPCATTNASGNSCGPCGTSQK [KRT34] | 4.71 ± 0.12 | 4.86 ± 0.23 |  | 
31 | AKVKLVFVEDQAVVETVFFLTSRT [ZSWIM9] | 3.31 ± 0.38 | 3.01 ± 0.5 |  | 
32 | QLVLAYDYSREVNTTEELEALITD [FEM1A] | 3.53 ± 0.28 | 3.8 ± 0.34 |  | 
33 | FKRSVRRNLSYTCRANRNCPIDQH [NR2F2] | 2.71 ± 0.17 | 2.63 ± 0.33 |  | 
34 | PMKKNNNLYSWDDFMELGRSIPDT [ACSBG2] | 3.74 ± 0.24 | 3.77 ± 0.3 |  | 
35 | QLQDFNIPQAGGWGPWGPWGDCSR [ADAMTS4] | 2.56 ± 0.59 | 3 ± 0.8 |  | 
36 | TRQKKNLPDSPLRFDGLPAVLGFP [TRIM15] | 2.85 ± 0.3 | 2.92 ± 0.3 |  | 
37 | GISALVEIPKNCVVAAVGKELIIF [WDR41] | 2.01 ± 1.1 | 2.69 ± 1.3 |  | 
38 | GEVLSYLELAQFHNAHQLAAWCLH [RHOBTB1] | 2.7 ± 0.81 | 2.35 ± 0.25 |  | 
39 | ITCVSGAIVDLISRQYDKFLTHFI [FBXO33] | 2.85 ± 0.53 | 3.13 ± 0.44 |  | 
40 | TLDLSDLEAEKLVMFQRRYYKPGL [SCD] | 2.54 ± 0.3 | 2.88 ± 0.35 |  | 
41 | MAHVDFRPPAYSPAQRSHTYTHGL | 2.8 ± 0.25 | 2.88 ± 0.32 |  | 
42 | RKQILLRGKLKKTEEELRRIQTQK [ZC2HC1C] | 3.99 ± 0.24 | 4.2 ± 0.26 |  | 
43 | EKYKPFSQVPTGEVFYYSCEYNFV [CFHR2] | 2.78 ± 1.5 |  |  | 
44 | RSVIEVPAVPEEILKRLLKEQHLW [DLC1] | 2.48 ± 0.36 | 2.69 ± 0.37 |  | 

Row | Sequence | protein stability index [1] | protein stability index [2] | protein stability index (treatment: DMSO, c terminus: native) | protein stability index (treatment: MLN4924 1 uM, 8 h, c terminus: native)
45 | VTTEQLGAKMTERGSVARPTQGPE [PXN] | 5.35 ± 0.17 | 5.14 ± 0.38 |  | 
46 | ELIRNIYNSFHKLRDRAERIASRA [SNX8] | 2.22 ± 0.75 | 2.17 ± 0.27 |  | 
47 | STHQEAENEKDRADQTVLTEDEKK [CHGB] | 5.35 ± 0.48 | 5.83 ± 0.091 |  | 
48 | FGGVIAFSSYNKQDNNCHFDAALV [SLC6A17] | 2.42 ± 0.32 | 2.43 ± 0.45 |  | 
49 | DLDSCSRDGALLGCSLTADGLPLH [MYORG] | 3.32 ± 0.28 | 3.51 ± 0.3 |  | 
50 | LPAGAGAPKAGLEEAPAVTAGLKI [TNFSF13B] | 4.65 ± 0.3 | 4.65 ± 0.15 |  | 
51 | TANTFRVMFKEPIEILPNVCYTAC [BTBD1] | 2.46 ± 0.44 | 2.18 ± 0.3 |  | 
52 | VKELRPQLMTSQFISVFSNLLESK [ZER1] | 2.38 ± 0.24 | 2.61 ± 0.44 |  | 
53 | MSPESYLGSPQHSPSTRGSPNRSL [ATF4] | 4.64 ± 0.19 | 4.91 ± 0.3 |  | 
54 | CTNTYVTGLSMIANGGAICAVTFF [OR4A15] | 3.25 ± 0.52 | 3.33 ± 0.38 |  | 
55 | VTAKTAPDVLRTKPAFIGKTNLDG [PTPRD] | 3.73 ± 0.4 | 4.06 ± 0.35 |  | 
56 | HNGDMEKILLDAQHESGQSSSRGS [BNIP3L] | 5.18 ± 0.17 | 5.32 ± 0.3 |  | 
57 | PPENSDSGTGKKEKEKKNRKGKDK [EIF5] | 5.58 ± 0.21 | 5.48 ± 0.28 |  | 
58 | YLTGTINGDPESVASLHWDGGALL [ADAMTS4] | 2.88 ± 0.59 | 3.1 ± 0.32 |  | 
59 | GSLHYTTLRTLTGQDTMLKAMFSG [KCTD13] | 2.46 ± 0.26 | 2.61 ± 0.21 |  | 
60 | IHQESGKAPSTDDATWAAVAACTK [C10orf62] | 4.56 ± 0.18 | 4.72 ± 0.32 |  | 
61 | ERVTVAKLTLENFYSNLILQHEER [STK38L] | 2.85 ± 0.28 | 2.99 ± 0.31 |  | 
62 | EHQPDNIKALFRKGKVLAQQGEYS [FKBP8] | 3.97 ± 0.36 | 3.87 ± 0.19 |  | 
63 | GKPLIPPMNRRNILVMKHNYSQDA [NETO1] | 2.98 ± 0.4 | 3.31 ± 0.28 |  | 
64 | KVSEGQADIMISFVRGDHRDNSPF [MMP1] | 3.1 ± 0.41 | 3.09 ± 0.52 |  | 
65 | VVQEPPGRASRFLQSISWDPEDFE [TLE6] | 4.24 ± 0.33 | 4.65 ± 0.45 |  | 
